# B1: Golgi to ER traffic protein 1 (Saccharomyces cerevisiae), P53192 (parent)
# chain: MHWAAAVAIFFIVVTKFLQYTNKYHEKWISKFAPGNELSKKYLAKVKERHELKEFNNSISAQDNYAKWTKNNRKLDSLDKEINNLKDEIQSENKAFQAHLHKLRLLALTVPFFVFKIMYGKTPVYKLSSSTSTLFPTFVSGVWSQGWLYVLLHPLRTISQKWHIMEGKFGASKFDDMALQSVSLGIWVWALMNVINGVEFIVKQLFLTPKMEAPASVETQEEKALDAVDDAIILD
# partner: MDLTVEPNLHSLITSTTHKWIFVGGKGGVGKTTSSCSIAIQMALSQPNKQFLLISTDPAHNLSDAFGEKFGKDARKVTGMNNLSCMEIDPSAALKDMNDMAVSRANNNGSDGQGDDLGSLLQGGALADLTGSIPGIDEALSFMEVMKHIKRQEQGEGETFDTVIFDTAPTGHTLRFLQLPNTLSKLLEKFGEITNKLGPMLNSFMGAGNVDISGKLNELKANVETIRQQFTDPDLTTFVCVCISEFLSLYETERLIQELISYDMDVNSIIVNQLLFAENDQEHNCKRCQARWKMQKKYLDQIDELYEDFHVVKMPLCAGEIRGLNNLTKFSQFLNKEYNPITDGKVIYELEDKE
# B2: Golgi to ER traffic protein 2 (Saccharomyces cerevisiae), P40056 (parent)
# chain: MSELTEAEKRRLLRERRQKKFSNGGASSRLNKITGQASSHLNAESPLDAPSAAKTTPPASVHSATPDIKEDSNVAPQLDLLKQLAAMQGQGTGKSTPQDSSTPDLLSLLSSMNTGMPSAEGTPSFGQAAPAAPINQAALDYHDYLLNRLKAWTILVKWVFFLLPYLYLITRPNSSVWPAYAFTQSAWFAPLRNPSNFTRIFATFEFLSISIYYQLLKNVEHKSKIKNLQDTNKLVKLVSLVPEGVIPVANLKGKLITLLQYWDLLSMLITDISFVLIVLGLLTYL
# partner: B1 partner
# Variants of: B1
# Settings: with get3_yeast GET3, Q12154
row,Variant,effect of a mutation on the interaction
1,MHWAAAVAIFFIVVTKFLQYTNKYHEKWISKFAPGNELSKKYLAKVKERHELKEFNNSISAQDNYAKWTKNNEKLDSLDKEINNLKDEIQSENKAFQAHLHKLRLLALTVPFFVFKIMYGKTPVYKLSSSTSTLFPTFVSGVWSQGWLYVLLHPLRTISQKWHIMEGKFGASKFDDMALQSVSLGIWVWALMNVINGVEFIVKQLFLTPKMEAPASVETQEEKALDAVDDAIILD [R73E],disrupting interaction

# Variants of: B2
# Settings: with get3_yeast GET3, Q12154
row,Variant,effect of a mutation on the interaction
1,MSELTEAEKRRLLREREQKKFSNGGASSRLNKITGQASSHLNAESPLDAPSAAKTTPPASVHSATPDIKEDSNVAPQLDLLKQLAAMQGQGTGKSTPQDSSTPDLLSLLSSMNTGMPSAEGTPSFGQAAPAAPINQAALDYHDYLLNRLKAWTILVKWVFFLLPYLYLITRPNSSVWPAYAFTQSAWFAPLRNPSNFTRIFATFEFLSISIYYQLLKNVEHKSKIKNLQDTNKLVKLVSLVPEGVIPVANLKGKLITLLQYWDLLSMLITDISFVLIVLGLLTYL [R17E],disrupting interaction

# Source: IntAct's records for PubMed 21866104
